Laboratory results published in publication PMC6821171.

Target: TF-LYAR-FL (FLAG) (human) (UniProt Q9NX58)
Assay: EMSA
Settings: EMSA: 10 mM Tris-HCl pH 7.4, 50 mM KCl, 1 mM DTT, 2.5 % (further components not shown in material), 20 µl, 30 min, room temperature

“GGTATATCTTTCGCTCCGAGTCGGCATTTTGGGCCGCCGGGTTATTGCTGACACGCTGTCCTCTGGCGACCTGTCGTC (double strand) [H0 rDNA promoter probe (H0-BT)]” was tested. Which binding did it give?
The binding was “no binding”.
